From US10703784B2, “Antigens and epitopes derived from Mycobacterium tuberculosis” (priority 2011, dated 2020)

Tested on: PBMCs from LTBI donors (IFN-γ production)
Format: cell-based, human
Conditions: ex vivo IFN-γ ELISPOT; for Resp. freq.: fraction of 28 LTBI donors responding to epitopes of the antigen; for Total SFC: total spot-forming cells, LTBI donors

Molecule	Resp. freq.	Total SFC
Rv0690c: MTB protein, novel CD4 T cell antigen; Conserved hypotheticals (protein, listed as Mycobacterium tuberculosis) MTGTEHLVHTLRSQGRVCTSSGSPMYRELLELVAADVESGGVFASILADQKGAPEGQAVPLRLLGGLHRMVLDGRAPVLRRWYPSTGGTWQAEAAWPDIVRTATDQPESLRAALDRPPQTNEVGRSAALIGGLLIACLQFDLPIRLFEIGSSAGLNLRPDRYRYRYLGGEWGLADSPVRIDNAWLGELPPTATVRIVERHGYDIAPIDVTSPDGELNALSYIWPDQTDRLERLRGAIAVARNIPADLHRQAAHAAVAGMTLTDDALTVLWHSITWQYLPADERAAIRAGIDALAAQADAHCPFVHLTLEPAHQRPGAQIKYLVRMRSWPGGHARVLGECHPHGPPVTWQ	11%	233 SFC
Rv0985c: MTB protein, novel CD4 T cell antigen; Cell wall and cell processes (protein, listed as Mycobacterium tuberculosis) MLKGFKEFLARGNIVDLAVAVVIGTAFTALVTKFTDSIITPLINRIGVNAQSDVGILRIGIGGGQTIDLNVLLSAAINFFLIAFAVYFLVVLPYNTLRKKGEVEQPGDTQVVLLTEIRDLLAQTNGDSPGRHGGRGTPSPTDGPRASTESQ	11%	70 SFC
Rv0987: MTB protein, novel CD4 T cell antigen; Cell wall and cell processes (protein, listed as Mycobacterium tuberculosis) MNDQAPVAYAPLWRTAWRRLRQRPFQYILLVLGIALGVAMIVAIDVSSNSAQRAFDLSAAAITGKSTHRLVSGPAGVDQQLYVDLRRHGYDFSAPVIEGYVLARGLGNRAMQFMGTDPFAESAFRSPLWSNQNIAELGGFLTRPNGVVLSRQVAQKYGLAVGDRIALQVKGAPTTVTLVGLLTPADEVSNQKLSDLIIADISTAQELFHMPGRLSHIDLIIKDEATATRIQQRLPAGVRMETSDTQRDTVKQMTDAFTVNLTALSLIALLVGIFLIYNTVTFNVVQRRPFFAILRCLGVTREQLFWLIMTESLVAGLIGTGLGLLIGIWLGEGLIGLVTQTINDFYFVINVRNVSVSAESLLKGLIIGIFAAMLATLPPAIEAMRTVPASTLRRSSLESKITKLMPWLWVAWFGLGSFGVLMLWLPGNNLVVAFVGLFSVLIALALIAPPLTRFVMLRLAPGLGRLLGPIGRMAPRNIVRSLSRTSIAIAALMMAVSLMVGVSISVGSFRQTLANWLEVTLKSDVYVSPPTLTSGRPSGNLPVDAVRNISKWPGVRDAVMARYSSVFAPDWGREVELMAVSGDISDGKRPYRWIDGNKDTLWPRFLAGKGVMLSEPMVSRQHLQMPPRPITLMTDSGPQTFPVLAVFSDYTSDQGVILMDRASYRAHWQDDDVTTMFLFLASGANSGALIDQLQAAFAGREDIVIQSTHSVREASMFIFDRSFTITIALQLVATVVAFIGVLSALMSLELDRAHELGVFRAIGMTTRQLWKLMFIETGLMGGMAGLMALPTGCILAWILVRIINVRSFGWTLQMHFESAHFLRALLVAVVAALAAGMYPAWRLGRMTIRTAIREE	11%	133 SFC
Rv1172c: MTB protein, novel CD4 T cell antigen; PE/PPE (protein, listed as Mycobacterium tuberculosis) MSFVFAAPEALAAAAADMAGIGSTLNAANVVAAVPTTGVLAAAADEVSTQVAALLSAHAQGYQQLSRQMMTAFHDQFVQALRASADAYATAEASAAQTMVNAVNAPARALLGHPLISADASTGGGSNALSRVQSMFLGTGGSSALGGSAAANAAASGALQLQPTGGASGLSAVGALLPRAGAAAAAALPALAAESIGNAIKNLYNAVEPWVQYGFNLTAWAVGWLPYIGILAPQINFFYYLGEPIVQAVLFNAIDFVDGTVTFSQALTNIETATAASINQFINTEINWIRGFLPPLPPISPPGFPSLP	11%	237 SFC
Rv1317c: MTB protein, novel CD4 T cell antigen; Information pathways (protein, listed as Mycobacterium tuberculosis) MHDDFERCYRAIQSKDARFDGWFVVAVLTTGVYCRPSCPVRPPFARNVRFLPTAAAAQGEGFRACKRCRPDASPGSPEWNVRSDVVARAMRLIADGTVDRDGVSGLAAQLGYTIRQLERLLQAVVGAGPLALARAQRMQTARVLIETTNLPFGDVAFAAGFSSIRQFNDTVRLACDGTPTALRARAAARFESATASAGTVSLRLPVRAPFAFEGVFGHLAATAVPGCEEVRDGAYRRTLRLPWGNGIVSLTPAPDHVRCLLVLDDFRDLMTATARCRRLLDLDADPEAIVEALGADPDLRAVVGKAPGQRIPRTVDEAEFAVRAVLAQQVSTKAASTHAGRLVAAYGRPVHDRHGALTHTFPSIEQLAEIDPGHLAVPKARQRTINALVASLADKSLVLDAGCDWQRARGQLLALPGVGPWTAEVIAMRGLGDPDAFPASDLGLRLAAKKLGLPAQRRALTVHSARWRPWRSYATQHLWTTLEHPVNQWPPQEKIA	11%	97 SFC
Rv1366: MTB protein, novel CD4 T cell antigen; Conserved hypotheticals (protein, listed as Mycobacterium tuberculosis) MVVALVGSAIVDLHSRPPWSNNAVRRLGVALRDGVDPPVDCPSYAEVMLWHADLAAEVQDRIEGRSWSASELLVTSRAKSQDTLLAKLRRRPYLQLNTIQDIAGVRIDADLLLGEQTRLAREIADHFGADQPAIHDLRDHPHAGYRAVHVWLRLPAGRVEIQIRTILQSLWANFYELLADAYGRGIRYDERPEQLAAGVVPAQLQELVGVMQDASADLAMHEAEWQHCAEIEYPGQRAMALGEASKNKATVLATTKFRLERAINEAESAGGGG	11%	308 SFC
Rv1441c: MTB protein, novel CD4 T cell antigen; PE/PPE (protein, listed as Mycobacterium tuberculosis) MSNVMVVPGMLSAAAADVASIGAALSAANGAAAPTTAGVLAAGADEVSAAIASLFSGYARDYQALSAQMARFHQQFVQALTASVGSYAAAEAANASPLQALEQQVLAAINAPTQTLLGRPLIGNGADGLPGQNGGAGGLLWGNGGNGGAGDAAHPNGGNGGDAGMFGNGGAGGAGYSPAAGTGAAGGAGGAGGAGGWLSGNGGAGGNGGTGASGADGGGGLPPVPASPGGNGGGGDAGGAAGMFGTGGAGGTGGDGGAGGAGDSPNSGANGARGGDGGNGAAGGAGGRLFGNGGAGGNGGTAGQGGDGGTALGAGGIGGDGGTGGAGGTGGTAGIGGSSAGAGGAGGDGGAGGTGGGSSMIGGKGGTGGNGGVGGTGGASALTIGNGSSAGAGGAGGAGGTGGTGGYIESLDGKGQAGNGGNGGNGAAGGAGGGGTGAGGNGGAGGNGGDGGPSQGGGNPGFGGDGGTGGPGGVGVPDGIGGANGAQGKHG	11%	86 SFC
Rv2490c: MTB protein, novel CD4 T cell antigen; PE/PPE (protein, listed as Mycobacterium tuberculosis) MQSMSFDPAVADIGSQVVNNAFQGLQAGAVAWVSLSSLLPAGAEEVSAWAVTAFTTAATGLLALNQAAQEELRKAGEVFTAIARMYSDADVRAAACLLEAIPRPGQTLARE	11%	64 SFC
Rv3024c: MTB protein, novel CD4 T cell antigen; Information pathways, Island 2 (protein, listed as Mycobacterium tuberculosis) MKVLAAMSGGVDSSVAAARMVDAGHEVVGVHMALSTAPGTLRTGSRGCCSKEDAADARRVADVLGIPFYVWDFAEKFKEDVINDFVSSYARGETPNPCVRCNQQIKFAALSARAVALGFDTVATGHYARLSGGRLRRAVDRDKDQSYVLAVLTAQQLRHAAFPIGDTPKRQIRAEAARRGLAVANKPDSHDICFIPSGNTKAFLGERIGVRRGVVVDADGVVLASHDGVHGFTIGQRRGLGIAGPGPNGRPRYVTAIDADTATVHVGDVTDLDVQTLTGRAPVFTAGAAPSGPVDCVVQVRAHGETVSAVAELIGDALFVQLHAPLRGVARGQTLVLYRPDPAGDEVLGSATIAGASGLSTGGNPGA	32%	1630 SFC
